Columns and labels:
[1] = molecular target: full-length gp120 monomer (HIV-1, isolate ; JRCSF as …, UniProt P20871); experiment: ITC
[2] = molecular target: full-length gp120 pre-complexed with CD4 (HIV-1, isolate  (JRCSF as …, UniProt P20871;P01730)); experiment: ITC

B1: PGT124 Fab (Fab, V domains shown)
VH: QVQLQESGPGLVRPSETLSVTCIVSGGSISNYYWTWIRQSPGKGLEWIGYISDRETTTYNPSLNSRAVISRDTSKNQLSLQLRSVTTADTAIYFCATARRGQRIYGVVSFGEFFYYYYMDVWGKGTAVTVSS
VL: SYVSPLSVALGETARISCGRQALGSRAVQWYQHKPGQAPILLIYNNQDRPSGIPERFSGTPDINFGTTATLTISGVEVGDEADYYCHMWDSRSGFSWSFGGATRLTVL
Kd [1]: 38 nM | Kd [2]: 34 nM
